# Data: patent US20120178909A1 (MorphoSys, published 2012)
# Target: T1, DV2 NS2B-NS3pro construct, wild type (strain 16681) (WNV strain of the DV serotype 2 (DV2; …, UniProt P29990 1393-1440; P29990 1476-1687)
# T1 construct: range 1393-1440;range 1476-1687
# Test: ELISA on coated construct
row,Binder,binding result
1,"AbD05321 (Fab, V domains shown) VH: QVQLVQSGAEVKKPGSSVKVSCKASGGTFSSHAISWVRQAPGQGLEWMGGIIPIFGMANYAQKFQGRVTITADESTSTAYMELSSLRSEDTAVYYCARYYWKPVLFDFDVWGQGTLVTVSS VL: DIALTQPASVSGSPGQSITISCTGTSSDIGGNNYVSWYQQHPGKAPKVMIYEVSKRPSGVSNRFSGSKSGNTASLTISGLQAEDEADYYCSSYTMTIFVFGGGTKLTVLG",no binding (tested: 2 µg/ml antibody)
2,"AbD05445 (Fab, V domains shown) VH: QVQLVESGGGLVQPGGSLRLSCAASGFTFSNNAMTWVRQAPGKGLEWVSLISYSGSSTYYADSVKGRFTISRDNSKNTLYLQMNSLRAEDTAVYYCARLGGNPLGPFDHWGQGTLVTVSS VL: DIALTQPASVSGAPGQRVTISCTGTSSDIGGYSYVSWYQQHPGKAPKLMIYGVTKRPSGVSNRFSGSKSGNTASLTISGLQAEDEADYYCQSWATHPIRVFGGGTKLTVLG",no binding (tested: 2 µg/ml antibody)
3,"AbD05446 (Fab, V domains shown) VH: QVQLVESGGGLVQPGGSLRLSCAASGFTFNSNSMSWVRQAPGKGLEWVSGISGIGSNTNYADSVKGRFTISRDNSKNTLYLQMNSLRAEDTAVYYCARVHYYSGVVFDFWGQGTLVTVSS VL: DIELTQPPSVSVAPGQTARISCSGDNLRTQYASWYQQKPGQAPVLVIYNKNKRPSGIPERFSGSNSGNTATLTISGTQAEDEADYYCAAWDSGSIVFGGGTKLTVLG",no binding (tested: 2 µg/ml antibody)
4,"AbD05320 (Fab, V domains shown) VH: QVQLVQSGAEVKKPGESLKISCKGSGYSFTNYWISWVRQAPGKGLEWMGIIDPGDSDTNYSPSFQGQVTISADKSISTAYLQWSSLKASDTAMYYCARVNYYNFDYWGQGTLVTVSS VL: DIVLTQSPATLSLSPGERATLSCRASQSVTSNLAWYQQKPGQAPRLLIYGNVSRRATGVPARFSGSGSGTDFTLTISSLEPEDFATYYCQQYGDYPATFGQGTKVEIKR",no binding (tested: 2 µg/ml antibody)
5,"AbD05322 (Fab, V domains shown) VH: QVQLVESGGGLVQPGGSLRLSCAASGFTFSNFWMSWVRQAPGKGLEWVSAISYSSSSTYFADSVKGRFTISRDNSKNTLYLQMNSLRAEDTAVYYCARAYRSYFDIWGQGTLVTVSS VL: DIQMTQSPSSLSASVGDRVTITCRASQSISNWLNWYQQKPGKAPKLLIYNASILQSGVPSRFSGSGSGTDFTLTISSLQPEDFAVYYCQQNYGIPITFGQGTKVEIKR",no binding (tested: 2 µg/ml antibody)
6,"AbD05444 (Fab, V domains shown) VH: QVQLVESGGGLVQPGGSLRLSCAASGFTFSSYWLNWVRQAPGKGLEWVSGISSSSSSTFYADGVKGRFTISRDNSKNTLYLQMNSLRAEDTAVYYCARHSYFDYWGQGTLVTVSS VL: DIQMTQSPSSLSASVGDRVTITCRASQSIVTYLNWYQQKPGKAPKLLIYAASNLQSGVPSRFSGSGSGTDFTLTISSLQPEDFAVYYCQQLYSHPPTFGQGTKVEIKR",no binding (tested: 2 µg/ml antibody)
